Earlier results, collected in PMC6535718 (Journal of the American Chemical Society, 2019).

Target: BfrB
Details: read-out: Kd of Bfd binding to BfrB; complex in solution

B1: Bfd: bacterioferritin-associated ferredoxin, cognate partner of BfrB in P. aeruginosa (protein, UniProt Q9HY80 1-73, looked up)
Bacterioferritin-associated …: MYVCLCQGVTDNQIRDAIYEGCCSYREVREATGVGTQCGKCACLAKQVVRETLNDLQSAQPVPAFGTTAFVAA
- Kd: ~3000 nM
